US20250263490A1 (VIB VZW, published 2025)

How the values were obtained:
[1] = target: T1, recombinant human domain 1-3His6 of the cation-independent mannose-6-phosphate receptor (human, UniProt P11717 41-467); assay: BLI, dissoc pH 6, mean of local fits
T1 construct: Biotinylated (NHS-PEG4-biotin) for BLI; Glycosylated; also called hDom1-3His6; hCI-M6PRD1-D3
Method: FIGS. 58 & 59. […] BLI was performed on an Octet Red96 (FortéBio) instrument in kinetics buffer (0.2 M Na₂HPO₄, 0.1 M Na⁺ citrate, 0.01% bovine serum albumin, 0.002% Tween-20). Biotinylated human domain₁₋₃His₆ was immobilized on Streptavidin SA biosensors (Sartorius) to a signal of 0.6 nm. […] Between assays, biosensors were regenerated by three times 10 s exposure to regeneration buffer (10 mM glycine pH 3). The degree of association and dissociation was measured in δ nm over time (s).
After loading, the tips were incubated with VHHs serially diluted in pH 7.4 kinetic buffer during the association phase and dissociation was performed at pH 7.4, pH 6.5, pH 6.0, pH 5.5 and pH 5.0. All biosensor tips were then regenerated before analysis of the subsequent VHH. Table 13 summarizes the kinetic parameters retrieved after processing and curve fitting of the BLI measurements. When both association and dissociation were performed at pH 7.4, a global fit was performed according to the 1:1 binding model of which the resulting affinity constants (KD), association (kₒₙ) and dissociation rate constants (koff) are shown. For measurements with association at pH 7.4 and dissociation at pH 6.5, 6.0, 5.5 and 5.0, the depicted dissociation rate constants are an average of the parameters determined by local curve fitting of the dissociation of 200, 100 and 50 nM VHH.

[2] = target: T2, mouse cation-independent mannose-6-phosphate receptor on cells (mouse, UniProt Q07113 36-2483); assay: flow cytometry, FLAG3-His6 VHH on mouse bEND3 cells
T2 construct: whole, on cells; also called mouse CI-M6PR of bEND3 cells; mCI-M6PR
Source text: Synthetic DNA fragments encoding VHHs were ordered (IDT, Leuven, Belgium) and subcloned into an E. coli expression vector under control of an IPTG-inducible lac promoter, in frame with N-terminal PelB signal peptide (which directs the recombinant proteins to the periplasmic compartment) and C-terminal FLAG3 and His6 tags. […] VHH proteins were purified from these clones by means of IMAC chromatography followed by desalting according to well established procedures¹⁰⁶. Cells used herein were recovered using cell dissociation non-enzymatic solution (Sigma Aldrich, cat. #C5914-100ML) and resuspended to a final concentration of 1,000,000 cells/mL in FACS buffer. Cells were incubated with different concentrations of purified FLAG3-tagged VHHs for 30 minutes on ice with shaking, followed by washing and incubation with mouse M2 anti-Flag mAb (Sigma Aldrich, cat. #F-1804) in FACS buffer for 30 min on ice with shaking, followed again by washing. […] Flow cytometry and analysis were done on an Attune NxT Flow Cytometer (Thermo Fisher Scientific).
Moreover, cross-reactivity to mouse CI-M6PR was analyzed, in view of the amino acid homology between mouse and human being overall about 80% identity, but for domain 1-3 of CI-M6PR just about 75% identity.

[3] = target: T1, recombinant human domain 1-3His6 of the …; assay: BLI exp 2, dissoc pH not printed (between 7 and 6, presumably 6.5)
[4] = target: T1, recombinant human domain 1-3His6 of the …; assay: BLI at pH 7.4, 1st of 2 repeats; BLI, biotinylated hDom1-3His6 on streptavidin tips, pH 7.4, experiment 1
Method: For each of the 11 anti-CI-M6PR VHHs, a biolayer interferometry (BLI) experiment was performed in which the hDom₁₋₃His₆ was biotinylated and coupled to streptavidin biosensor tips. Afterwards, the tips were incubated with serially diluted VHHs during the association phase and dissociation was performed at pH 7.4. Similarly, dissociation was performed at pH 7.0, pH 6.0 and pH 5.0 as well after regeneration of the biosensor tips. […] The anti-CI-M6PR antibody (clone 2G11) and GBP were used as positive and negative controls, respectively.
Analysis of the binding kinetics was performed using an Octet Red96 (FortéBio) device with Streptavidin SA Biosensor tips (VWR 733-2145). Therefore, 1 mL of human domain₁₋₃His₆ (0.5 mg/mL in 50 mM MES, 150 mM NaCl, pH 6.5) was incubated at room temperature for 30 minutes with EZ-Link™ NHS-PEG4-Biotin (1 mg) (Thermo Fischer A39259) and NaHCO₃ (100 mM). Biotinylated human domain₁₋₃His₆ was purified using a Zeba spin desalting Column™ (7K MWCO, 2 mL, Thermo Fischer 89890) and 1 μg/mL was used for immobilization on the Streptavidin SA Biosensor tips. The loaded tips were dipped into a particular anti-CI-M6PR VHH solution, serially diluted in kinetics buffer (0.2M NaH₂PO₄, 0.1M Na⁺ citrate, 0.01% BSA, 0.002% Tween20, pH 7.4). This was followed by dissociation of the particular anti-CI-M6PR VHH in kinetics buffer of pH 7.4, followed by regeneration in Glycine (10 mM, pH 3) and neutralisation. Same cycle was repeated but the dissociation was performed at pH 7.0, 6.0, 5.0, 4.5 and 4.0. A reference well and reference sensors were subtracted from ligand sensors afterwards and Savitsky-Golay filtering was applied on the data. Fitting of the data was performed using a 1:1 model, grouped per pH of dissociation.

T2 sequence (Q07113 36-2483): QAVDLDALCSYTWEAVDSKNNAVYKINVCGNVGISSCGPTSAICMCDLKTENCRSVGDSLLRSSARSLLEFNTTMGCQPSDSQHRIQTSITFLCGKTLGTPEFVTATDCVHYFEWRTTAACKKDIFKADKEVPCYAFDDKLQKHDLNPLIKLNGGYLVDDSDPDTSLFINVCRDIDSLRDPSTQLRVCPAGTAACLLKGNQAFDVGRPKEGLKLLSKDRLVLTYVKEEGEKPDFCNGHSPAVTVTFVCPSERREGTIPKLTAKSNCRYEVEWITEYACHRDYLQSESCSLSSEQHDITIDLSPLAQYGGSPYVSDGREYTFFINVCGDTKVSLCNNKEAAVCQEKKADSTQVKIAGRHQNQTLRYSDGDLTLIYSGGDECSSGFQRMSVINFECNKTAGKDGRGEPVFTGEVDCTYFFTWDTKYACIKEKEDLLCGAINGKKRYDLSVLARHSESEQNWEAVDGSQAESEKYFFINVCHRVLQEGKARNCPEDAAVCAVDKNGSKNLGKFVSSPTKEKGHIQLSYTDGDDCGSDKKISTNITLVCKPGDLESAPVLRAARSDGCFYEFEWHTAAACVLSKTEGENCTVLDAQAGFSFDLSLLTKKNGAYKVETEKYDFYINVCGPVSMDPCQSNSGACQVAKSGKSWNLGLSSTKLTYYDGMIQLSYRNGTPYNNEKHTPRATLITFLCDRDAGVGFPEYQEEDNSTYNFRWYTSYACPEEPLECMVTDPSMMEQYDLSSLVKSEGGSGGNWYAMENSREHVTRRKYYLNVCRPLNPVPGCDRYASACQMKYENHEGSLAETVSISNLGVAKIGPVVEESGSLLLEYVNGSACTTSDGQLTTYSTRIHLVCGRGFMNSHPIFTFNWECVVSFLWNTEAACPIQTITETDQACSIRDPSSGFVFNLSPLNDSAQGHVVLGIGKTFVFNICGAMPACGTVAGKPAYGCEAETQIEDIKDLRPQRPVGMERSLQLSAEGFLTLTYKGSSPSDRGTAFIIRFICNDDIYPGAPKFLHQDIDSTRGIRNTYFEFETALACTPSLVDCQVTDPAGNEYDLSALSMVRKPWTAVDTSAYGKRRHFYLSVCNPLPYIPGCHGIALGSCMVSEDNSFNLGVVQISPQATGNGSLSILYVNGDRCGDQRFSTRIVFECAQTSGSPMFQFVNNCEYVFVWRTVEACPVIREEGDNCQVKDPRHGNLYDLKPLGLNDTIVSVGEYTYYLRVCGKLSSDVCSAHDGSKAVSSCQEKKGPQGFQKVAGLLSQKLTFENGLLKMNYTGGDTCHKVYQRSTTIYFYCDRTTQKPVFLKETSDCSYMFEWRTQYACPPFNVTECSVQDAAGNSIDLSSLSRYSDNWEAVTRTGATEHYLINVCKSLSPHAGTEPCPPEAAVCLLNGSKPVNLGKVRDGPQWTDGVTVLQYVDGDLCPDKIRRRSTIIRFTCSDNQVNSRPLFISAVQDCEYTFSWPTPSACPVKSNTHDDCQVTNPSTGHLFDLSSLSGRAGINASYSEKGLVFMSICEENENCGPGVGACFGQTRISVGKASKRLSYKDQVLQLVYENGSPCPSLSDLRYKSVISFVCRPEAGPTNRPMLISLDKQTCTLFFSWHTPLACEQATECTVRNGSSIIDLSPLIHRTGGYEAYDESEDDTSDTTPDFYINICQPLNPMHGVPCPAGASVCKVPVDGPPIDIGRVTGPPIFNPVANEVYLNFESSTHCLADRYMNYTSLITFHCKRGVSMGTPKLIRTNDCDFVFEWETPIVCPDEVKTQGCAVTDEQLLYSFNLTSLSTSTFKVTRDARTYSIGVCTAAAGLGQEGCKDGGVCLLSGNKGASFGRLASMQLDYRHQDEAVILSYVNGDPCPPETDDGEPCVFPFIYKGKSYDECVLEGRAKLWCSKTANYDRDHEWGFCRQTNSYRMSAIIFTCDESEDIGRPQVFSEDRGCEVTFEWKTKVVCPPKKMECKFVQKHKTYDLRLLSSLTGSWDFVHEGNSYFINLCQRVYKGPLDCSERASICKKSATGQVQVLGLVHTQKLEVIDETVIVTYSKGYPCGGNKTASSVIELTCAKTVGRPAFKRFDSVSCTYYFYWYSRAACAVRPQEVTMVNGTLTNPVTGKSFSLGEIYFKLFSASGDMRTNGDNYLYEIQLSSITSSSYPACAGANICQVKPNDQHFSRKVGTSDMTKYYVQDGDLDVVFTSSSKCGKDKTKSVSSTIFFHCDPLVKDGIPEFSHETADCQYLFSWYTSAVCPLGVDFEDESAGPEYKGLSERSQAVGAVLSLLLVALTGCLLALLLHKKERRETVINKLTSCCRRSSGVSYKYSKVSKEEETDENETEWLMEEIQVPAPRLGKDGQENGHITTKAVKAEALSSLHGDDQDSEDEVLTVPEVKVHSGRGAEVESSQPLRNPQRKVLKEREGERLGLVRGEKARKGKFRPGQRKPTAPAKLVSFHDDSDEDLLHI

B1: anti-CI-M6PR VHH 1H11 (VHH)
VHH: QVQLQESGGGLVQPGGSLRLSCAASGIIFSDNRMDWYRQAPGKQREWVATLASYGWKTYADSVKDRFTISRDNAKNTVNLYMNSLQPEDTAVYYCNSGQYWGQGTQVTVSS
notes: made in E. coli WK6, His-tag purified
koff [1]: 0.0051 s⁻¹

B2: anti-CI-M6PR VHH7 (VHH)
VHH: QVQLQESGGGLVQPGGSLRLSCAASGIIFSDNRMDWYRQAPGKQREWVATLASYGWKTYADSVKGRFTISRDNTKNTVYLRMNSLKPEDTAVYYCKASSPVLNDIWGQGTQVTVSS
notes: His6-tagged (Pichia pastoris)
EC50 [2]: ~8.5 nM

B3: anti-CI-M6PR VHH5 (VHH)
VHH: QVQLQESGGGLVQAGGSLKLSCAAAGRTFSRLAMGWFRQAPGKEREFVAAISENGDSIHYSDSVKGRFAVSRDNAKNTVYLQMNSLKPEDTAIYYCAADRAAYYCSGSGCYPSRAPAAASYDYWGQGTQVTVSS
notes: His6-tagged; made in Pichia pastoris, later also in E. coli WK6
koff [3]: 0.00017 s⁻¹

B4: anti-CI-M6PR VHH4 (VHH)
VHH: QVQLQESGGGLVQAGGSLRLSCAASGRTFSNYVMGWFRQAPGKEREFVGSISQGGKMTYYPDSVKGRFTISRDNAKNTMYLQMDGLKPEDTAVYYCAVSRGYPMVRVSEVDYWGQGTQVTVSS
notes: His6-tagged; made in Pichia pastoris
Kd [4]: 2.33 nM
koff [4]: 0.00133 s⁻¹
kon [4]: 571000 M⁻¹ s⁻¹
